Assay results from US11230711B2, “Inhibition of LET7I as a means to enhance the protective effect of progesterone against stroke” (UNIVERSITY OF NORTH TEXAS HEALTH SCIENCE CENTER, priority 2017, dated 2022).

Test system: primary cortical neurons
Assay: Synaptic marker expression (Synaptophysin, Gap-43) in primary cortical neurons, immunostaining and qRT-PCR
Format: cell-based, mouse
Conditions: P4-ACM from 10 nM P4-treated astrocytes, 18 hrs, BDNF 50 ng/ml, FIGS. 1A-1B
Description: FIG. 1A represents immune-staining of Gap43 (green) and Synaptophysin (red). FIG. 1B represents qRT-PCR analysis of Gap43 (left) and Synaptophysin (right) mRNA levels. Data are presented as a percentage of control (non-treated group) (*: p≤0.05, **:p≤0.01).
The use of animals for the purpose of generating primary cultures was approved by the Institutional Animal Care and Use Committee at the University of North Texas Health Science Center. All mice will be handled according to the Guide for the Care and Use of Laboratory Animals. Primary cultures of cortex and hippocampal neurons will be prepared from neonatal murine pups (C57BL/6 mice, Jackson Laboratory) as described by Sarkar et al. with modifications. Briefly, cortical tissues isolated from newborn mice (postnatal days 2-4, mixed gender) will be then dissociated with trypsin and DNase I for 10 min at 37° C., and wash twice with Neurobasal-A medium containing B-27 and further dissociated by gentle titration using a graded series of fine polished Pasteur pipettes. After centrifugation at 200×g for 3 min at 4° C., dissociated cells will be resuspended in Neurobasal-AB-27 medium, passed through a cell strainer with 70 μm mesh, and plated at 1.0×10^5 cells/cm2 on culture dishes precoated with poly-D-lysine. The culture dishes were kept at 37° C. in humidified 95% air and 5% CO2. For primary neuron-enriched culture, the initial culture medium was replaced after 5 h; subsequently, half of the medium was changed every 3 days. At day in vitro (DIV) 3, 1-β-arabinofuranosylcytosine (AraC) was added to a final concentration of 5 μM to prevent glial proliferation. Treatments of the primary neuronal cultures started at DIV 14. For glial-enriched cultures, confluent mixed glial cultures were placed on the shaker for 48 hrs to dislodge microglia, resulting in cultures enriched with astrocyte population.
Although the underlying mechanism remains unclear, one potential mediator for P4-induced synaptogenesis is BDNF [33].

[1] = listed as purified recombinant BDNF

B1: BDNF: purified recombinant brain-derived neurotrophic factor, 50 ng/ml, positive control (protein, UniProt P23560 19-247, looked up)
Neurotrophic factor BDNF …: APMKEANIRGQGGLAYPGVRTHGTLESVNGPKAGSRGLTSLADTFEHVIEELLDEDQKVRPNEENNKDADLYTSRVMLSSQVPLEPPLLFLLEEYKNYLDAANMSMRVRRHSDPARRGELSVCDSISEWVTAADKKTAVDMSGGTVTVLEKVPVSKGQLKQYFYETKCNPMGYTKEGCRGIDKRHWNSQCRTTQSYVRALTMDSKKRIGWRFIRIDTSCVCTLTIKRGR
- expression of Gap-43: increased expression
- expression of Synaptophysin: increased expression
- expression of Gap-43 [1]: increased the expression
- expression of Synaptophysin [1]: increased the expression
